Results on 41 sequences are retold here after the nanobody polyreactivity screen of Harvey et al. (2022).

A short description of this series: yeast display, Sf9 membrane polyspecificity reagent, FACS + sequencing; frameworks hold sequencing errors. The essentials: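 Polyreactivity labels are assigned by the sorting gate from which each nanobody was recovered. The gates were low and high (top ~1%), set on anti-HA fluorescence for expression and streptavidin fluorescence for reagent binding. Before sorting, galactose-induced (36–48 hours) yeast display cells were stained for 1 hour at 4 °C with 10% biotinylated, detergent-solubilized Sf9 membrane reagent.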
Consider “QVQLVESGGGLVQAGGSLRLSCAASGSIFSENAMGWYRQAPGKERELVAAITGGASTNYADSVKGRFTISRDNAKNTVYLQMNSLKPEDTAVYYCAADANRTKFDYWGQGTQVTVSS”, for which the “polyreactivity (PSR sort gate)” value is recorded as “low polyreactivity”. Consider “QVQLVESGGGLVQAGGSLRLSCAASGSIFSFYAMGWYRQAPGKERELVAAISRSGGSTYYADSVKGRFTISRDNAKNTVYLQMNSLKPEDTAVYYCAADYYYGTYDYWGQGTQVTVSS”, for which the “polyreactivity (PSR sort gate)” value is “low polyreactivity”. In the case of “QVQLVESGGGLVQAGGSLRLSCAASGSIFSFYAMGWYRQAPGKERELVAAISSSGGSTYYADSVKGRFTISRDNAKNTVYLKMNSLKPEDTAVYYCAARFAYGGGYWGQGTQVTVSS”, the “polyreactivity (PSR sort gate)” value is reported as “high polyreactivity”. For the sequence “QVQLVESGGGLVQAGGSLRLSCAASGSIFSFYAMGWYRQAPGKESELVAAISRSGGSTYYADSVKGRFTISRDNAKNTVYLQMNSQKPEDTAVYYCAVYAFSYPRYYYWGQGTQVTVSS”, the “polyreactivity (PSR sort gate)” value is listed as “low polyreactivity”.

As for “QVQLVESGGGLVQAGGSLRLSCAASGSIFSFYTMGWYRQAPGKERELVASSTTYADSVKGRFTISRDNAKNTVYLQMNSLKPEDTAVYYCAVDYNSLRYGPLGYWGQGTQVTVSS”, the “polyreactivity (PSR sort gate)” value is “low polyreactivity”.

For the sequence “QVQLVESGGGLVQAGGSLRLSCAASGSIFSGNAMGWYRQAPGKERELVAAITTRSGSTYYADSVKGRFTISRDNAKNTVYLQMNSLKPEDTAVYYCAATGYRYRRIYGFDYWGQGTQVTVSS”, the “polyreactivity (PSR sort gate)” value is on record as “high polyreactivity”. Take “QVQLVESGGGLVQAGGSLRLSCAASGSIFSGNVIGWYRQAPGKERELVAAISGRGGSTYYADSVKGRFTISRDNAKNTVYLQMNSLKPEDTAVYYCAAVYLKTYYWGQGTQVTVSS”: the “polyreactivity (PSR sort gate)” value was “high polyreactivity”. Consider “QVQLVESGGGLVQAGGSLRLSCAASGSIFSGYAMGWYRQAPGKERELVAAINSNGGRTYYADSVKGRFTISRDNAKNTVYLQMNSLKPEDTAVYYCNAAKRGWYYDYYYWGQGTQVTVSS”, for which the “polyreactivity (PSR sort gate)” value is given as “high polyreactivity”. Then “QVQLVESGGGLVQAGGSLRLSCAASGSIFSGYMGWYRQAPGKERELVATITSGGSTYADSVKGRFTISRDNAKNTVYLQMNSLKPEDTAVYYCAADVSFYTSKYDYWGQGTQVTVSS”, with “low polyreactivity”; and “QVQLVESGGGLVQAGGSLRLSCAASGSIFSHYAMGWYRQAPGKERELVAAISSSGNTYYADSVKGRFTISRDNAKNTVYLQMNSLKPEDTAVYYCNAVVYSPYRYEYWGQGTQVTVSS”, with “low polyreactivity”.

As for “QVQLVESGGGLVQAGGSLRLSCAASGSIFSINAMGWYRQAPGKERELVAAISWSGGSTYYADSVKGRFTISRDNAKNTVYLQMNSLKPEDTAVYYCNAEEDEYGELDYWGLGTQVTVSS”, the “polyreactivity (PSR sort gate)” value is “low polyreactivity”. Consider “QVQLVESGGGLVQAGGSLRLSCAASGSIFSIYAMGWSRQAPGTERELVATITRNSGRTYYADSVKGRFTISRDNAKNTVYLQMNSLKPEDTAVYYCAASVKIISYLVHSEFLGGELDYWGQGTQVTVSS”, for which the “polyreactivity (PSR sort gate)” value was “low polyreactivity”. Regarding “QVQLVESGGGLVQAGGSLRLSCAASGSIFSIYAMGWYRQAPGTERELVASINSGDSTYYADSVKGRFTISRDNAKNTVYVQMNSLKPDDTAVYNCAATLVTVPLYRFDYWGQGTQVTVSS”, the “polyreactivity (PSR sort gate)” value is “low polyreactivity”. For the sequence “QVQLVESGGGLVQAGGSLRLSCAASGSIFSIYAMGWYRQAPRKERELVAAISSSGRTYYADSVKGRFTISRDNAKNTVYLQMNSQKPVDTAVYYCNRVREGKHYYYWGQGTQVTVSS”, the “polyreactivity (PSR sort gate)” value was “high polyreactivity”.

With “QVQLVESGGGLVQAGGSLRLSCAASGSIFSKYVMGWYRQAPGKERELVAAISWSGTRTYYADSVKGRFTISRDNAKNTVYLQMNSLKPEDTAVYYCAARRLYAGHQYDYWGQGTQVTVSS”, the “polyreactivity (PSR sort gate)” value is “high polyreactivity”. “QVQLVESGGGLVQAGGSLRLSCAASGSIFSLNAMGWYRQAPGKERELVAVINRSGTRTYYADSVKGRFTISRDNAKNTVYLQINSLKPEVTAVYYCNAEPSSGSDAQNEYWGQGTQVTVSS”: the “polyreactivity (PSR sort gate)” value is “high polyreactivity”.

Turning to “QVQLVESGGGLVQAGGSLRLSCAASGSIFSPNAMGWYRQATGKERELVAAISWTGVSTHYADSVKGRFTISRDNAKNTDYLHMNSLKPEDTAVYYCKYRFYRYPKYGYWGQGTQVTVSS”, the “polyreactivity (PSR sort gate)” value is “high polyreactivity”. For “QVQLVESGGGLVQAGGSLRLSCAASGSIFSPYAMGWYRQAPGKERELVAAITNSGGRTYYADSVKGRFTISRDNAKNTVYLQMNSLKPEDTAVYYCNADYGKHHTDYYYWGQGTQVTVSS”, the “polyreactivity (PSR sort gate)” value is “low polyreactivity”.

With “QVQLVESGGGLVQAGGSLRLSCAASGSIFSPYAMGWYRQAPGKERELVATITWSGGSTYYADSVKGRFTISRDNAKNTVYLQMNSLKPEDTAVYYCAATRSGYTSYTDDSWGQGTQVTVSS”, the “polyreactivity (PSR sort gate)” value is “high polyreactivity”. With “QVQLVESGGGLVQAGGSLRLSCAASGSIFSQYAMGWYRPAPGKERELVAAISRSGGRTSYADSVKGRFTISRDNAKNTVYLQMNSLKPEDTAVYYCAARGPTNMGYWGQGTQVTVSS”, the “polyreactivity (PSR sort gate)” value is recorded as “high polyreactivity”.

Regarding “QVQLVESGGGLVQAGGSLRLSCAASGSIFSQYAMGWYRQAPGKEREFVAAINWSGGRTRYADSVKGRFTISRDNAKNTVYLEMKSLKPEDTAVYYCNARGYSGVSGKYGYWGQGTQVTVSS”, the “polyreactivity (PSR sort gate)” value is on record as “high polyreactivity”. In the case of “QVQLVESGGGLVQAGGSLRLSCAASGSIFSQYAMGWYRQAPGKERELVAAISGGGGSTSYADSVKGRFTISRDNAKNTVYLQMNSLKPDDTAVYYCAAYLYNRPYQLTGYYDGYGYWGQGTQVTVSS”, the “polyreactivity (PSR sort gate)” value is “low polyreactivity”. “QVQLVESGGGLVQAGGSLRLSCAASGSIFSQYAMGWYRQAPGKERELVAAISRSGGRTSYADSVKGRFTISRDNAKNTVYLQMNSLKPEDTAVYYCAARGPTNMGYWGQGTQVTVSS”: the “polyreactivity (PSR sort gate)” value was “high polyreactivity”. Then “QVQLVESGGGLVQAGGSLRLSCAASGSIFSQYVMGWYRQAPGNERELVAAIVWSSGSTYYADSVKGRFTMSRDNAKNTVYLQMNSLKPEDTAVYYCAARTKAFKPGYGYWGQGTQVTVSS”, with “low polyreactivity”; and “QVQLVESGGGLVQAGGSLRLSCAASGSIFSRNAMAWYRQAPGKERELVAAISGSGGSTYYADSVKGRFTISRDNAKNTVYLQMNSLKPEDTAVYYCNKFGYHREYDYWGQGTQVTVSS”, with “low polyreactivity”; and “QVQLVESGGGLVQAGGSLRLSCAASGSIFSRNAMGWYRQAPGKEREFVARISWSSTSTNYADSVKGRFTISRDNAKNTVYLQMNSLKPEDTAVYYCAADFRGDRRFDYWGQGTQVSVSS”, with “low polyreactivity”.

With “QVQLVESGGGLVQAGGSLRLSCAASGSIFSRNAMGWYRQAPGKEREFVARISWSSTSTNYAESVKGRFTISRDNAKNTVYLQMNSLKPEDSAVYYCAAHFRGDRRFDYWGQGTQVTVSS”, the “polyreactivity (PSR sort gate)” value is given as “high polyreactivity”. On to “QVQLVESGGGLVQAGGSLRLSCAASGSIFSRNAMGWYRQAPGKERELVAAISWRGGSTYYADSVKGRFTISRDNAKYTVYLQMNSLKPEDTAVYYCGALSYPGKAGMGYWGQGTQVTVSS”, for which the “polyreactivity (PSR sort gate)” value is “high polyreactivity”. As for “QVQLVESGGGLVQAGGSLRLSCAASGSIFSRNTMGWYRQAPGKERELVAGISSSGSRTYYADSVKGRFTISRDNPKNTVYLQMNSLKPEDTAVYYCAAEHQRSRGRRYYIGYDYWGQGTQVTVSS”, the “polyreactivity (PSR sort gate)” value is on record as “low polyreactivity”. As to “QVQLVESGGGLVQAGGSLRLSCAASGSIFSRYAMGRYRQAPGKERELVAAISKSGGSTYYADSVKGRFTISRDNAKNTVYLQMNSLKPEDTAVYYCNARDSPGQRRAEPYGYWGQGTQVTVSS”, the “polyreactivity (PSR sort gate)” value is given as “high polyreactivity”. Take “QVQLVESGGGLVQAGGSLRLSCAASGSIFSRYAMGWYRTAPGKERELVAAINKSGGSTYYADSVKGRFTISRDNAKNTVYLQMNSLKPEDTAVYYCNAVYYWYKGDYWGQGTQVTVSS”: the “polyreactivity (PSR sort gate)” value was “high polyreactivity”. “QVQLVESGGGLVQAGGSLRLSCAASGSIFSSNAMGWYRQAPGKERELVAAITRGGRTTYADSVKGRFTISRDNAKKTVYLQMNSLKPEDTAVYYCNAESYLTGWWVDYWGQGTQVTVSS”: the “polyreactivity (PSR sort gate)” value is listed as “low polyreactivity”. Consider “QVQLVESGGGLVQAGGSLRLSCAASGSIFSSNAMGWYRQPPGKERELVAAITSGGSTYYADSVKGRFTISRDNAKNTVYLQMNSLKPEDTAVYYCAASYWGFQRMYYWGQGTQVTVSS”, for which the “polyreactivity (PSR sort gate)” value is listed as “high polyreactivity”. Then “QVQLVESGGGLVQAGGSLRLSCAASGSIFSSNTMGWYRPAPGKERELVAAITSGGGTYYADSVKGRFTISRDNAKNTVYLQMNSLKPEDTAVYYCAAQRVYKSSPSYDYWGQGTQVTVSS”, with “low polyreactivity”; and “QVQLVESGGGLVQAGGSLRLSCAASGSIFSSYAMGWSRQAPGKERELVAAISSGDSTYYADSVKGRFTISRDNAKTTVYLQMNSLKPEDTAVYYCAAPWYAWGQGTQVTVSS”, with “low polyreactivity”. For the sequence “QVQLVESGGGLVQAGGSLRLSCAASGSIFSSYAMGWYRQAPGKERELVAAISQSGGDTYYADSVKGRFTISRDNAKNTVYLQMNSLKPEDTAVYYCAASVWYYPMDYWGKGTQVTVSS”, the “polyreactivity (PSR sort gate)” value was “low polyreactivity”.

Consider “QVQLVESGGGLVQAGGSLRLSCAASGSIFSSYAMGWYRQAPGKERELVAAISQSGGDTYYADSVKGRFTISRDNAKYTVYLQMNSLKPDDTAVYYCAASVWYFPMDYWGQGTQLTVSS”, for which the “polyreactivity (PSR sort gate)” value is given as “low polyreactivity”. For “QVQLVESGGGLVQAGGSLRLSCAASGSIFSSYAMGWYRQAPGKERELVAAISSGGITYYADSVKGRFTISRDNAKNTVYLQMNSLKPEDTAVYYCAAVRRRGTTYDYWGQGTQVTVSS”, the “polyreactivity (PSR sort gate)” value is listed as “high polyreactivity”. As for “QVQLVESGGGLVQAGGSLRLSCAASGSIFSSYAMGWYRQAPGKERELVAAISTAGSTNYADSVKGRFTISRDNAKNTVYLQINSLKPEDTAVYYCAADSGDQQSYGLDLNHDFDYWGQGSQVTVSS”, the “polyreactivity (PSR sort gate)” value was “low polyreactivity”. As for “QVQLVESGGGLVQAGGSLRLSCAASGSIFSSYAMGWYRQAPGKERELVATITSSGGSTYYADSVKGRFTISRDNAKNTVYLQMNSLKPADTAVYYCAASYHTSYSLRRYYYWGQGTQVTVSS”, the “polyreactivity (PSR sort gate)” value is reported as “low polyreactivity”. On to “QVQLVESGGGLVQAGGSLRLSCAASGSIFSSYAMGWYRQAPGKERELVATITSSGGSTYYADSVKGRFTISRDNAKNTVYLQMNSLKPEVTAVYYCAASYHTSYSLRSYYYWGQGTQVTVSS”, for which the “polyreactivity (PSR sort gate)” value is on record as “low polyreactivity”.
